Assay results as given in PMC8199036, “Improved Tumor-Targeting with Peptidomimetic Analogs of Minigastrin ^177Lu-PP-F11N” (Cancers, 2021).
Where “and” joins values, the source holds several entries; their conditions need not be identical. Identical values can stand only once. Like-named read-outs stand apart in the source and are kept apart here.

How the values were obtained:
[1] = design: method as in PMID 30608664; settings: 177Lu-labeled; mouse blood, 10 min p.i.; reported previously; cited from earlier work
[2] = tested on: xenografts of A431-CCK2R cells; experiment: biodistribution in mice with CCK2R-positive xenografts; format: in vivo, female CD1-nu mice
Protocol: (§1) Procedures for biodistribution studies with ^177Lu-labeled conjugates (10 pmol, 100 µL, 0.1 µM in PBS, 0.5 MBq, 1 µg/kg) in female CD1-nu mice with xenografts of A431-CCK2R cells at 1, 4, and 24 h p.i., as well as blocking experiments at 4 h p.i. with a 6000-fold excess of minigastrin have been reported previously and were followed without modifications. Statistical analysis was performed via GraphPad Prism using two-sided analysis of variance. n = 4 animals per group.

[3] = as above; format: in vivo, female CD1-nu mice; settings: female, CD1-nu, mouse, in vivo, total radioactivity; for tissue uptake at 1 h: 1 h p.i.; for tissue uptake at 24 h: 24 h p.i.
Protocol: as §1

[4] = design: method as in PMID 30608664; settings: 177Lu-labeled; 24 h incubation, human blood plasma; reported previously; cited from earlier work
[5] = 10 pmol, read-out: Heart uptake
[6] = 10 pmol, read-out: Intestines uptake
[7] = 10 pmol, read-out: Kidneys uptake
[8] = 10 pmol, read-out: Liver uptake
[9] = 10 pmol, read-out: Pancreas uptake
[10] = 10 pmol, read-out: Spleen uptake
[11] = 10 pmol, read-out: Stomach (CCK2R-positive) uptake
[12] = 10 pmol, read-out: Tumor (CCK2R-positive) uptake

Structure (SMILES): CCCC[C@H](NC(=O)[C@H](Cc1c[nH]c2ccccc12)NC(=O)CNC(=O)[C@H](Cc1ccc(O)cc1)NC(=O)[C@H](C)NC(=O)[C@@H](CCC(=O)O)NC(=O)[C@@H](CCC(=O)O)NC(=O)[C@@H](CCC(=O)O)NC(=O)[C@@H](CCC(=O)O)NC(=O)[C@@H](CCC(=O)O)NC(=O)[C@@H](CCC(=O)O)NC(=O)CN1CCN(CC(=O)O)CCN(CC(=O)O)CCN(CC(=O)O)CC1)C(=O)N[C@@H](CC(=O)O)C(=O)N[C@@H](Cc1ccccc1)C(N)=O [PP-F11N, DOTA-(DGlu)6-Ala-Tyr-Gly-Trp-Nle-Asp-Phe-NH2]
- Intact Compound In Vivo (%), 10 min [1]: 43% and 43.1 ± 2.7%
- Tumor (CCK2R-positive) uptake ([2]; 1 h p.i.): 6.92 ± 2.21 % i.A./g
- Tumor (CCK2R-positive) uptake ([2]; 4 h p.i.): 4.07 ± 1.40 % i.A./g
- Tumor (CCK2R-positive) uptake ([2]; 24 h p.i.): 2.73 ± 0.84 % i.A./g and 2.7 ± 0.8 % i.A./g
- tissue uptake at 1 h ([3]; 10 pmol, read-out: Bone uptake): 0.88 %ID/g
- tissue uptake at 1 h [3, 5]: 0.08 %ID/g
- tissue uptake at 1 h [3, 6]: 0.12 %ID/g
- tissue uptake at 1 h [3, 7]: 2.75 %ID/g
- tissue uptake at 1 h [3, 8]: 0.09 %ID/g
- tissue uptake at 1 h ([3]; 10 pmol, read-out: Lung uptake): 0.16 %ID/g
- tissue uptake at 1 h ([3]; 10 pmol, read-out: Muscle uptake): 0.13 %ID/g
- tissue uptake at 1 h [3, 9]: 0.18 %ID/g
- tissue uptake at 1 h [3, 10]: 0.06 %ID/g
- tissue uptake at 1 h [3, 11]: 1.02 %ID/g
- tissue uptake at 1 h [3, 12]: 6.92 %ID/g
- tissue uptake at 4 h ([3]; 10 pmol, 4 h (blocked), excess minigastrin, read-out: Bone uptake): 0.15 %ID/g
- tissue uptake at 4 h ([3]; 10 pmol, 4 h (blocked), excess minigastrin, read-out: Muscle uptake): 0.01 %ID/g
- tissue uptake at 4 h ([3]; 10 pmol, 4 h p.i., read-out: Blood uptake): 0.01 %ID/g
- tissue uptake at 4 h ([3]; 10 pmol, 4 h p.i., read-out: Bone uptake): 0.22 %ID/g
- tissue uptake at 4 h ([3]; 10 pmol, 4 h p.i., read-out: Heart uptake): 0.03 %ID/g
- tissue uptake at 4 h ([3]; 10 pmol, 4 h p.i., read-out: Intestines uptake): 0.05 %ID/g
- tissue uptake at 4 h ([3]; 10 pmol, 4 h p.i., read-out: Kidneys uptake): 2.42 %ID/g
- tissue uptake at 4 h ([3]; 10 pmol, 4 h p.i., read-out: Liver uptake): 0.06 %ID/g
- tissue uptake at 4 h ([3]; 10 pmol, 4 h p.i., read-out: Lung uptake): 0.03 %ID/g
- tissue uptake at 4 h ([3]; 10 pmol, 4 h p.i., read-out: Muscle uptake): 0.02 %ID/g
- tissue uptake at 4 h ([3]; 10 pmol, 4 h p.i., read-out: Pancreas uptake): 0.09 %ID/g
- tissue uptake at 4 h ([3]; 10 pmol, 4 h p.i., read-out: Spleen uptake): 0.03 %ID/g
- tissue uptake at 4 h ([3]; 10 pmol, 4 h p.i., read-out: Stomach (CCK2R-positive) uptake): 1.04 %ID/g
- tissue uptake at 4 h ([3]; 10 pmol, 4 h p.i., read-out: Tumor (CCK2R-positive) uptake): 4.07 %ID/g
- tissue uptake at 24 h ([3]; 10 pmol, read-out: Bone uptake): 0.1 %ID/g
- tissue uptake at 24 h [3, 5]: 0.01 %ID/g
- tissue uptake at 24 h [3, 6]: 0.03 %ID/g
- tissue uptake at 24 h [3, 7]: 1.72 %ID/g
- tissue uptake at 24 h [3, 8]: 0.04 %ID/g
- tissue uptake at 24 h ([3]; 10 pmol, read-out: Lung uptake): 0.02 %ID/g
- tissue uptake at 24 h [3, 9]: 0.08 %ID/g
- tissue uptake at 24 h [3, 10]: 0.02 %ID/g
- tissue uptake at 24 h [3, 11]: 0.67 %ID/g
- tissue uptake at 24 h [3, 12]: 2.73 %ID/g
- tissue uptake at 4 h ([3]; 4 h (blocked), excess minigastrin, read-out: Blood uptake): 0.01 %ID/g
- tissue uptake at 4 h ([3]; 4 h (blocked), excess minigastrin, read-out: Heart uptake): 0.02 %ID/g
- tissue uptake at 4 h ([3]; 4 h (blocked), excess minigastrin, read-out: Intestines uptake): 0.03 %ID/g
- tissue uptake at 4 h ([3]; 4 h (blocked), excess minigastrin, read-out: Kidneys uptake): 2.57 %ID/g
- tissue uptake at 4 h ([3]; 4 h (blocked), excess minigastrin, read-out: Liver uptake): 0.07 %ID/g
- tissue uptake at 4 h ([3]; 4 h (blocked), excess minigastrin, read-out: Lung uptake): 0.04 %ID/g
- tissue uptake at 4 h ([3]; 4 h (blocked), excess minigastrin, read-out: Pancreas uptake): 0.04 %ID/g
- tissue uptake at 4 h ([3]; 4 h (blocked), excess minigastrin, read-out: Spleen uptake): 0.04 %ID/g
- tissue uptake at 4 h ([3]; 4 h (blocked), excess minigastrin, read-out: Stomach (CCK2R-positive) uptake): 0.12 %ID/g
- tissue uptake at 4 h ([3]; 4 h (blocked), excess minigastrin, read-out: Tumor (CCK2R-positive) uptake): 1.3 %ID/g
- Intact Compound In Vitro (%), 24 h, Blood Plasma [4]: 98.1 ± 0.9%
